In patent US20260234247A1:

B1: LK-RB1-5 (antibody, human IgG4 S228P, kappa, V domains shown)
VH: QVQLQQPGAELVKPGASVKLSCKASGYTFTDFWIHWVKQRPGQGLEWIGMIHPNSGSTNFNEKFRAKATLTVDKSSSTAYMRLSSLTSEDSAVYYCARSGDGYSNPMDYWGQGTSVTVSS
VL: QIVLSQSPAILSASPGEKVTLTCRASSSVSYMHWYQQKPGSSPKPWIYATSNLASGVPVRFSGSGSGTSYSLTISRMQTEDAATYYCQQWRRSPYTFGGGTKLEIKR
B2: LK-RB1-11 (antibody, human IgG4 S228P, kappa, V domains shown)
VH: QVTLKESGPGILQPSQTLSLTCSFSGFSLKTSGMSVGWIRQPSGKGLEWLAHIWWNDDKYYNPVLKGRLTISKDTSNNLVFLKIASVVSTDTATYYCVRYGNSHGYWYFDVWGTGTTVTVSS
VL: NIVLTQSPASLAVSLGQRATISCRASESVDSYGNNFIHWYQQKPGQPPKVLIYYASNLEAGVPARFSGSGSRTDFTLTIDPVEAEDAATYYCQQNNEDPYTFGGGTKLEIER
B3: LK-RB2-29 (antibody, human IgG4 S228P, kappa, V domains shown)
VH: QVQLQQSGAELARPGASVKLSCKASGYTFTSYWMQWVKQRPGQGLEWIGAIYPGDGDTRYTQKFKGKATLTADKSSSTAYMQLSSLASEDSAVYYCARGYYGSSYADYFDYWGQGTTLTVSS
VL: DIQMTQSPASLSASVGETVTITCRASGNIHNYLAWYQQKQGKSPQLLVYNAKTLADGVPSRFSGSGSGTQYSLKINSLQPEDFGSYYCQHFWSTPPTFGGGTKLEIKR
B4: LK-RB2-30 (antibody, human IgG4 S228P, kappa, V domains shown)
VH: EVQLVESGGGLVQPGGSLKLSCAASGFTFNTDGMSWVRQTPDKRLELVAIINSNGGSTYYPDSVKGRFTISRDNAKNTLYLQMSSLKSEDTAMYYCAREGSYGSWFAYWGQGTLVTVSA
VL: DIQMTQSPASLSVSVGETVTITCRASENINNNLAWYHQKQGKSPQLLVYAATNLADGVPSRFSGSGSGTQYSLKINSLQSEDFGSYYCQHFWGTPFTFGGGTKLEIKR
B5: LK-RB2-31 (antibody, human IgG4 S228P, kappa, V domains shown)
VH: QVQLQQPGAELVKPGASMKLSCKASGYTFTTYYMYWVKQRPGLGLEWIGGINPSNGGTTFNEKFKNKATLTVDKSSSTAYMQLRSLTSEDSAVYYCTRWRFFDVWGAGTTVTVSS
VL: SIVMTQTPEFLLVSAGDRVTITCKASQSVNNDVAWFQQKPGQSPKLLIYYASNRYTGVPDRFTGSGYGTDFTFTISTVQAEDLAIYFCQQDYSSPPTFGGATKLEIKR
B6: LK-RB2-32 (antibody, human IgG4 S228P, kappa, V domains shown)
VH: DVQLQESGPGLVKPSQSLSLTCSVTGYSITSGYYWNWIRQFPGNKLEWMGYISFDGSNHYNPSLRNRISITRDTFKNQFFLKLNSVTTEDTATFYCTRRDYNWFAYWGQGTLVTVSA
VL: DIVLTQSPVTLSVTPGDSVSLSCRASQNINKNLHWYQQRSHESPRLLIKYVSQSISGIPSRFSGSGSGTDFTLSINSVETEDFGMYFCQQSNSWPLTFGAGTKLELRR
B7: LK-RB2-34 (antibody, human IgG4 S228P, kappa, V domains shown)
VH: DVKVVESGGGLVKPGGSLKLSCAASGFTFSSYSMSWVRQTPEKRLEWVATISTGSSYTYYSDSVKGRFTISRDNAKNTLYLQMSSLKSEDTAMFYCTRGSMDYWGQGTSVTVSS
VL: DILMTQSPSSMSVSLGDTVSITCHASQDISSNIGWLQQKPGNSFKGLIYHGINLEDGVPSRFSGSGSGADYSLTISSLESEDFADYYCVQYAQFPYTFGGGTKLEIKR
B8: LK-RB2-41 (antibody, human IgG4 S228P, kappa, V domains shown)
VH: EVQLQLSGPELVKPGASVKMSCKASGYTFTDYNMHWVKQSHGKSLEWIGYINPNNGGTTYNQKFKGKATLTVNKSSSTAYMELRSLTSEDSAVYYCARAPYYGSSYLLAYWGQGTLVTVSA
VL: DIVMTQSHKFMSTSVGDRVSITCKASQDVSTAVAWYQQKPGQSPKLLIYSASYRYTGVPDRFTGSGSGTDFTFTISSVQAEDLAIYYCQQHYSIPWTFGGGTKLEIKR
B9: LK-RB2-42 (antibody, human IgG4 S228P, kappa, V domains shown)
VH: EFQLQQSGPELVKPGASVKISCKASGYSFTDYNMNWVKQSNGKSLDWIGIINPKYGTTAYNQKLRDKATLTVDQSSSTAYMQLNSLTSEDSAVYYCASLNWDEGFAYWGQGTLVTVSP
VL: DVLMTQTPLSLPVSLGDQASISCRSSQSIVHSNGNTYLEWYLQKPGQPPKLLIYKVSNRFSGVPERFSGSGSGTDFTLKINRVEAEDLGVYYCFQGSLVPPTFGGGTKLEIKR

Legend:
[1] = target: Rhesus LILRB1 (NP_001035762.2) protein (rhesus macaque) (UniProt F7H3G7); experiment: ELISA on rhesus LILRB1 (NP_001035762.2) protein
[2] = target: Rhesus LILRB1 (NP_001035762.2) on CHOK1 cells (rhesus macaque) (UniProt F7H3G7); experiment: flow cytometry on CHOK1-rhesus LILRB1 (NP_001035762.2) cells
[3] = target: Cynomolgus LILRB2 on CHOK1 cells (cynomolgus); experiment: flow cytometry on CHOK1-cyno LILRB2 cells

| Binder | EC50 [1] [nM] | EC50 [2] [nM] | EC50 [3] [nM] |
| --- | --- | --- | --- |
| B1 | 0.05 | 1.08 | – |
| B2 | 0.08 | – | – |
| B3 | – | – | 2.09 |
| B4 | – | – | 1.04 |
| B5 | – | – | 1.59 |
| B6 | – | – | 5.72 |
| B7 | – | – | 2.3 |
| B8 | – | – | 1.5 |
| B9 | – | – | 2.86 |
